This data set deals with the molecule itself. Kind of data set: SEC. In general terms: SEC sorts molecules by how far they enter the pores of the column.

Usually stoichiometry N stands for a count of units in the complex or per binding partner.

B1: YdjI (enzyme, E. coli K12)
chain: MLADIRYWENDATNKHYAIAHFNVWNAEMLMGVIDAAEEAKSPVIISFGTGFVGNTSFEDFSHMMVSMAQKATVPVITHWDHGRSMEIIHNAWTHGMNSLMRDASAFDFEENIRLTKEAVDFFHPLGIPVEAELGHVGNETVYEEALAGYHYTDPDQAAEFVERTGCDSLAVAIGNQHGVYTSEPQLNFEVVKRVRDAVSVPLVLHGASGISDADIKTAISLGIAKINIHTELCQAAMVAVKENQDQPFLHLEREVRKAVKERALEKIKLFGSDGKAE
modifications: Cys234 oxidized to cysteic acid (seen in the electron density of each subunit)
B1: the “stoichiometry N” value amounted to 4.

The values above are taken from article PMC6850750 (Biochemistry, 2019).
